Columns and labels:
GST-WAVE2 = GST-WAVE2 (UniProt Q9Y6W5); assay: pull-down
FLAG-WAVE2 = FLAG-WAVE2 (UniProt Q9Y6W5); assay: co-IP
Sequence of FLAG-WAVE2 (Q9Y6W5 whole entry): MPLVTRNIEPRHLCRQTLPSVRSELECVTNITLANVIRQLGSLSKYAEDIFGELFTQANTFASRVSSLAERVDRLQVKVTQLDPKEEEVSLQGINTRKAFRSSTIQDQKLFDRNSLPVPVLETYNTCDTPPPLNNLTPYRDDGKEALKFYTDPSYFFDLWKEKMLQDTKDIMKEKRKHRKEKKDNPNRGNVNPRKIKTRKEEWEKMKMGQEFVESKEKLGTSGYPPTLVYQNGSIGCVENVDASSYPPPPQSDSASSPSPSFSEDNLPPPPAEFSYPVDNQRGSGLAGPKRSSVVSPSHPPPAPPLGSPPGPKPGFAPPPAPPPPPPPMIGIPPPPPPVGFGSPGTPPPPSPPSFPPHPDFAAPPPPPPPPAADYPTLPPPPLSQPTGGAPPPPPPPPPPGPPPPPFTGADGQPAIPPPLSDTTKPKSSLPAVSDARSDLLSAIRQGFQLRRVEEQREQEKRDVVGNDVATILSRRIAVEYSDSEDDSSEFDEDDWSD

Sequence of GST-WAVE2 (Q9Y6W5 whole entry): as above

Row | KD in the presence of Exo70 (GST-WAVE2) | Kd (GST-WAVE2) | fold increase of Arp2/3 bound in the presence of Exo70 against BSA (GST-WAVE2) | Arp3 co-precipitated after Exo70 siRNA, percent of control siRNA-treated cells (FLAG-WAVE2) | Substance
1 | 210 nM | 470 nM | 3.5 fold | – | Arp2/3 complex (purified) (from UniProt P61158 1-418)
2 | – | – | – | 44% | Arp2/3 complex, endogenous in MDA-MB-231 cells (from UniProt P61158 1-418)

— article PMC3427469
